This is an account of results in publication doi:10.1101/2021.05.21.445086.

The target of the test is mS105 (Chlamydomonas reinhardtii (endogenous in strain CC-4351)). Description: cryo-EM structure.

The term stoichiometry N denotes the number of molecules, sites or subunits per partner or assembly. mS105 (natural protein): the stoichiometry N came to 3.
